Data taken from the FLAb antibody collection (doi:10.7554/elife.23156).

B1: scFv; the commonest letter at each place (parent)
chain 1: EVKLDETGGGLVQPGRPMKLSCVASGFTFSDYWMNWVRQSPEKGLEWVAQIRNKPYNYETYYSDSVKGRFTISRDDSKSSVYLQMNNLRVEDMGIYYCTGSYYGMDYWGQGTSVTVS
chain 2: DVVMTQTPLSLPVSLGDQASISCRSSQSLVHSNGNTYLRWYLQKPGQSPKVLIYKVSNRFSGVPDRFSGSGSGTDFTLKISRVEAEDLGVYFCSQSTHVPWTFGGGTKLEIK

Experiments:
[1] = variants of: B1; experiment: Kd (Tite-Seq); conditions: with fluorescein; format: scFv 4-4-20, heavy + light
[2] = variants of: B1; experiment: yeast surface expression (ratio to wild type); higher = more expressed; conditions: format: scFv 4-4-20, heavy + light

Variant	Kd [1]	yeast surface expression [2]
chain 1 Y103W G109S	≥ 10 µM	0.653
chain 1 Y32L M34A	≥ 10 µM	0.634
chain 1 Y32W W33Y	≥ 10 µM	0.945
chain 1 Y32W W33Q	≥ 10 µM	0.886
chain 1 W33G V37Y	≥ 10 µM	0.672
chain 1 G100I Y103F	≥ 10 µM	0.932
chain 1 G100N G104N	≥ 10 µM	0.347
chain 1 N35E	≥ 10 µM	0.802
chain 1 F29Y S30A D31M	0.216 µM	0.826
chain 1 Y32N M34E	0.021 µM	–
chain 1 Y103I W108C	3.74 µM	0.359
chain 1 Y32F W33Y	≥ 10 µM	0.757
chain 1 Y103L G109I	≥ 10 µM	0.206
chain 1 D106Y G109D	≥ 10 µM	0.224
chain 1 D106Y G109Q	≥ 10 µM	0.171
chain 1 G104Y W108L	≥ 10 µM	0.212
chain 1 S30P V37Y	0.0729 µM	1.25
chain 1 S101L M105D D106L	≥ 10 µM	0.276
chain 1 F29P D31R	0.0259 µM	0.86
chain 1 M34F	0.00226 µM	0.988
chain 1 M34C	0.00326 µM	0.712
chain 1 S101M G104W	≥ 10 µM	0.278
chain 1 Y103L Y107S	0.55 µM	0.878
chain 1 G109S	0.00361 µM	0.826
chain 1 D31L W36H	≥ 10 µM	0.82

Variant	Kd [1]	yeast surface expression [2]
chain 1 G100C W108T	0.000846 µM	0.565
chain 1 Y102G D106Y	≥ 10 µM	0.496
chain 1 S30D D31G W33A	≥ 10 µM	0.663
chain 1 M34T W36L	≥ 10 µM	0.455
chain 1 T28A N35C	≥ 10 µM	0.665
chain 1 W33C M34K	≥ 10 µM	0.774
chain 1 M105W W108V	0.000454 µM	0.756
chain 1 M105Q G109W	≥ 10 µM	0.115
chain 1 Y32R W36V	≥ 10 µM	0.547
chain 1 Y103F W108I	≤ 0.000316 µM	0.885
chain 1 T28E F29Q	0.00827 µM	1
chain 1 S30E M34T W36T	≥ 10 µM	0.353
chain 1 S30M M34L	0.00299 µM	0.94
chain 1 S101A Y102P	≥ 10 µM	0.793
chain 1 Y107A W108A	≥ 10 µM	0.351
chain 1 F29D W33Y	≥ 10 µM	0.766
chain 1 S30W Y32G	1.55 µM	0.706
chain 1 G104M Y107H	≥ 10 µM	0.555
chain 1 M105G D106R	≥ 10 µM	0.434
chain 1 Y107I W108R	≥ 10 µM	0.466
chain 1 D106H Y107A	≥ 10 µM	0.455
chain 1 G100T D106V	≥ 10 µM	0.468
chain 1 W33T	≥ 10 µM	1.02
chain 1 G104W G109R	≥ 10 µM	0.171
chain 1 S101D G104D Y107K	≥ 10 µM	0.674

Variant	Kd [1]	yeast surface expression [2]
chain 1 Y103M W108Q	0.0896 µM	0.547
chain 1 T28R S30L D31S	≥ 10 µM	0.198
chain 1 Y102S G109Y	≥ 10 µM	0.248
chain 1 Y102S G109L	≥ 10 µM	0.228
chain 1 Y102L D106R	≥ 10 µM	0.344
chain 1 Y32V V37K	7.72 µM	0.425
chain 1 D31N V37I	0.00325 µM	0.855
chain 1 M105F D106L	≥ 10 µM	0.356
chain 1 M34S W36A	≥ 10 µM	0.437
chain 1 T28S	0.00325 µM	0.985
chain 1 T28N W33Y	≥ 10 µM	1
chain 1 D31G V37N	0.00785 µM	0.512
chain 1 Y32P W33I	≥ 10 µM	0.908
chain 1 M105T Y107C	≥ 10 µM	0.675
chain 1 W108L G109I	≥ 10 µM	0.203
chain 1 G104I W108D	≥ 10 µM	0.236
chain 1 S30V M34S	≥ 10 µM	0.569
chain 1 S30V M34H	≥ 10 µM	0.497
chain 1 S101M Y107H	≥ 10 µM	0.483
chain 1 W36L V37Q	≥ 10 µM	0.537
chain 1 G100T Y102H D106M	≥ 10 µM	1.02
chain 1 W108I	≤ 0.000316 µM	0.882
chain 1 W108Y	≤ 0.000316 µM	0.963
chain 1 W108C	0.000646 µM	0.717

Continued, in another order:

Kd [1]	Variant	yeast surface expression [2]
≥ 10 µM	chain 1 Y103Q W108N	0.415
0.00468 µM	chain 1 D31H N35G	0.736
≥ 10 µM	chain 1 D106L G109H	0.0932
0.00325 µM	chain 1 F29I	1.01
≥ 10 µM	chain 1 G104S Y107G	0.303
≥ 10 µM	chain 1 G100N G104W	0.281
≥ 10 µM	chain 1 S30W W36D	0.104
≥ 10 µM	chain 1 D31V W33D	0.821
≥ 10 µM	chain 1 D106W Y107N	0.222
≥ 10 µM	chain 1 N35C W36F	0.644
0.00361 µM	chain 1 M34V	0.876
≥ 10 µM	chain 1 G100H	0.432
0.0038 µM	chain 1 G100S	0.938
≥ 10 µM	chain 1 S101C M105I	0.826
≥ 10 µM	chain 1 D106W G109A	0.168
≥ 10 µM	chain 1 G109T	0.551
≥ 10 µM	chain 1 M105N G109C	0.123
≥ 10 µM	chain 1 Y103A W108E	0.603
≥ 10 µM	chain 1 T28N N35V	0.666
≥ 10 µM	chain 1 G104C M105P	0.256
≥ 10 µM	chain 1 Y32G M34P	0.545

Kd [1]	Variant	yeast surface expression [2]
0.00215 µM	chain 1 Y102V D106N	0.889
≥ 10 µM	chain 1 S101T Y102M	0.778
≥ 10 µM	chain 1 F29N S30P M34H	0.781
≥ 10 µM	chain 1 D31C M34P	0.56
8.56 µM	chain 1 Y102R M105A	1.1
≥ 10 µM	chain 1 D31K W33R V37C	0.501
≥ 10 µM	chain 1 W33N W36R	0.764
≥ 10 µM	chain 1 W33L	0.824
≥ 10 µM	chain 1 W33Y	0.976
≥ 10 µM	chain 1 W33I	0.854
≥ 10 µM	chain 1 F29N S30D	0.949
≥ 10 µM	chain 1 S101L D106K	0.379
1.91 µM	chain 1 Y102G	0.965
≥ 10 µM	chain 1 M105E G109W	0.278
≥ 10 µM	chain 1 S101G Y102L	1.06
≥ 10 µM	chain 1 G100V G109Y	0.271
≥ 10 µM	chain 1 W33D W36M	0.165
≥ 10 µM	chain 1 Y102G Y103K G109K	0.425
≥ 10 µM	chain 1 F29T Y32S W33H	0.659
≥ 10 µM	chain 1 W108Q G109Q	0.278
≥ 10 µM	chain 1 M34P V37T	0.323
